Common to all, as to test: ELISA
The target of assay [1] is T1, human LILRB4 (UniProt Q8NHJ6 22-259).
Assay [2] concerns the target T1, human LILRB4. This is another data set of the same source.
Assay [3] concerns the target T1, human LILRB4. The source holds these as a separate data set.

In patent publication US20180086829A1 (published 2018) one finds EC50 data, which are given here for 6 molecules.

Like-named read-outs stand apart in the source and are kept apart here.

T1 sequence (Q8NHJ6 22-259): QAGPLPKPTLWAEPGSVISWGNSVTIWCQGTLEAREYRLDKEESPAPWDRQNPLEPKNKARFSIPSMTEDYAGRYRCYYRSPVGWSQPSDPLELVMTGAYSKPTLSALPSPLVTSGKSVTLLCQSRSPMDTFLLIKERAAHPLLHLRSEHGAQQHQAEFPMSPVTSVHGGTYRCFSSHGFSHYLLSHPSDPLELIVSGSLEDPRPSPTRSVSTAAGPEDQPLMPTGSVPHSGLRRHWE

B1: anti-LILRB4 rabbit monoclonal antibody #120 (antibody, V domains shown)
VH: QSLEESGGRLVTPGTPLTLTCTVSGIDLNKYAMTWVRQAPGKGLEYIGFINIVGIAGYATWAKGRFTISKTSTTVDLKVTSPTTEDTATYFCARNWIRLDLWGQGTLVTVSS
VL: ELDLTQTPASVSAAVGGTVTISCQSSESLYKKNYLSWFQQKPGQPPKLLIFEASKLASGVPSRFSGSGSGTQFTLTISDVQCDDAASYYCLGDYTNGRDTTFGGGTEVVVK
For B1, in assay [1], it took 0.0119 µg/mL to reach a half-maximal effect (EC50).

B2: anti-LILRB4 rabbit monoclonal antibody #161-2 (antibody, V domains shown)
VH: QSVKESGGRLVTPGTPLTLTCTVSGIDLSVYLMSWVRHSPGKGLEYIGFINSAGITAYATWAKGRFIISKTSTTVDLKVTSPTTEDTATYFCARNWIRLDLWGQGTLVTISS
VL: TQTPASVSAAVGGTVTISCQSSETIYKNYLSWFQQKPGQPPKLLIYESSKLASGVPSRFSGSGSGTQFTLTISDVQCDDAATYYCLGGYTDGRDTIFGGGTEVEIK
The molecule B2 showed an EC50 in assay [2] of 0.0126 µg/mL.

B3: anti-LILRB4 rabbit monoclonal antibody #78 (antibody, V domains shown)
VH: QSLQESGGRLVTPGTPLTLTCTVSGIDLSVYLMSWVRQSPGKGLEYIGFINSAGITAYATWAKGRFIISKTSTTVDLKVTSPTTEDTATYFCARNWIRLDLWGQGTLVTISS
VL: ELVLTQTPASVSAAVGGTVTISCQSSESIYKNYLSWFQQKPGQPPKLLIYETSKLASGVPSRFSGSGSGTQFTLTISDVQCDDAATYYCLGGYTNGRDTIFGGGTELEIK
In assay [1], B3 gave an EC50 of 0.0121 µg/mL.

B4: anti-LILRB4 rabbit monoclonal antibody #161-1 (antibody, V domains shown)
VH: QSVKESGGRLVTPGTPLTLTCTVSGIDLSVYLMSWVRHSPGKGLEYIGFINSAGITAYATWAKGRFIISKTSTTVDLKVTSPTTEDTATYFCARNWIRLDLWGQGTLVTISS
VL: ELDLTQTPASVSAAVGGTVTISCQSSETIYKNYLSWFQQKPGQPPKLLIYESSKLASGVPSRFSGSGSGTQFTLTISDVQCDDAATYYCLGGYTDGRDTIFGGGTELEIK
Turning to B4, it took 0.0104 µg/mL to reach a half-maximal effect in assay [3] (EC50).

B5: anti-LILRB4 rabbit monoclonal antibody #192 (antibody, V domains shown)
VH: EQSLEESGGGLVTPGGTLTLTCTVSGFSLSNNAMSWVRQAPGKGLEWIGVILLAGPTYYASWAKGRFTISKTSTTVDLKITSPTTEDTATYFCAIAIGSRPFALWGQGTLVTISS
VL: ELVLTQTPSSTSAAVGGTVTINCQSSQSVYSNWLSWFQQKPGQPPKPLIYLASTLASGVPSRFSGSGSGTQFTLTISDVQCDDAATYYCQGGYNGNIYTFGGGTEVVVK
In assay [3], B5 registered an EC50 of 0.021 µg/mL.

B6: anti-LILRB4 rabbit monoclonal antibody #208 (antibody, V domains shown)
VH: EQSVEESGGGLVTPGGTLTLTCTVSGFSLSNNAMSWVRQAPGKGLEWIGVILLSGTTYYASWAKGRFTISKTSTTVDLKITSPTTEDTATYFCAIAIGSRPFALWGQGTLVTISS
VL: ELVMTQTPSSTSAAVGGTVTINCQSSQSVYSNWLSWFQQKPGQPPKPLIYLASTLASGVPSRFSGSGSGTQFTLTISDVQCDDAATYYCQGGYNGNIYTFGGGTEVVVK
The molecule B6 had an EC50 in assay [2] of 0.0198 µg/mL.

One may read the EC50 as the concentration giving half of the maximal effect. A low value points to an effect from little substance.
